Assay [1] concerns the target T1, full-length human LIP5 M43A (human, UniProt Q9NP79 1-307, M43A).
T1 construct: LIP5, human, full length, point mutant; spacer before the TEV site and His tag, as in m2; Mutant of m2; dimer as said of full-length LIP5 (cited); source: E. coli BL21*(DE3), purified (HisTrap, SEC)
T1 sequence: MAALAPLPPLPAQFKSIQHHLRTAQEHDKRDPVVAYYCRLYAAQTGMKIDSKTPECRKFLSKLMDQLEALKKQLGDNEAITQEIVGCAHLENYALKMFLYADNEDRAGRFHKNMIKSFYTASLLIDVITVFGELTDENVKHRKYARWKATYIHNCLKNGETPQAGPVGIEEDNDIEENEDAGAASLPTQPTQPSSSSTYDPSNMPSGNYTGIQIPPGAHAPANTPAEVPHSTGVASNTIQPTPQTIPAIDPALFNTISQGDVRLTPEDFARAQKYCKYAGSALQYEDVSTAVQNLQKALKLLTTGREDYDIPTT
In words: other fluorescence titration; Alexa 488-labeled, dephosphorylated AQP2 (around 1 uM) in the cuvette, titrated with unlabeled LIP5; total fluorescence; 20 mM Tris-HCl pH 8, 300 mM NaCl, 0.2% OGNG; triplicate titrations. Conditions: both partners purified.

Assay [2] has as its target T2, full-length human LIP5 M64A (human, UniProt Q9NP79 1-307, M64A).
T2 construct: LIP5, human, full length, point mutant; spacer before the TEV site and His tag, as in m2; Mutant of m2; dimer as said of full-length LIP5 (cited); source: E. coli BL21*(DE3), purified (HisTrap, SEC)
T2 sequence: T1 sequence with A43M, M64A
The description is as above. Particulars: both partners purified.

Residue numbers refer to the chain shown, from its start.

For orientation: Kd means the constant that tells how readily two partners part at equilibrium. Read a low Kd as a tighter complex.

B1: human aquaporin 2 (AQP2), wild-type (natural protein, UniProt P41181 1-271, looked up)
chain: MWELRSIAFSRAVFAEFLATLLFVFFGLGSALNWPQALPSVLQIAMAFGLGIGTLVQALGHISGAHINPAVTVACLVGCHVSVLRAAFYVAAQLLGAVAGAALLHEITPADIRGDLAVNALSNSTTAGQAVTVELFLTLQLVLCIFASTDERRGENPGTPALSIGFSVALGHLLGIHYTGCSMNPARSLAPAVVTGKFDDHWVFWIGPLVGAILGSLLYNYVLFPPAKSLSERLAVLKGLEPDTDWEEREVRRRQSVELHSPQSLPRGTKA
modifications: cysteine residues labeled with C5 maleimide Alexa 488; dephosphorylated with alkaline phosphatase before labeling
notes: concentrations and molar ratios seem to count monomers; His-tag is called uncleavable; also called WT; labeled AQP2; source: Pichia pastoris, purified (HisTrap, SEC) in OGNG; not shown: His-tag, N-terminal, kept
Turning to B1, the results for the Kd in assay [1] and in assay [2] were 457 nM and 271 nM, respectively.

The values above are taken from PMC6862464, “Structural Insights into AQP2 Targeting to Multivesicular Bodies” (International Journal of Molecular Sciences, 2019).
